Data as given in patent US20220218639A1.

B1: α2-antiplasmin: Circulating serpin that rapidly inhibits plasmin (protein)
chain: NQEQVSPLTLLKLGNQEPGGQTALKSPPGVCSRDPTPEQTHRLARAMMAFTADLFSLVAQTSTCPNLILSPLSVALALSHLALGAQNHTLQRLQQVLHAGSGPCLPHLLSRLCQDLGPGAFRLAARMYLQKGFPIKEDFLEQSEQLFGAKPVSLTGKQEDDLANINQWVKEATEGKIQEFLSGLPEDTVLLLLNAIHFQGFWRNKFDPSLTQRDSFHLDEQFTVPVEMMQARTYPLRWFLLEQPEIQVAHFPFKNNMSFVVLVPTHFEWNVSQVLANLSWDTLHPPLVWERPTKVRLPKLYLKHQMDLVATLSQLGLQELFQAPDLRGISEQSLVVSGVQHQSTLELSEVGVEAAAATSIAMSRMSLSSFSVNRPFLFFIFEDTTGLPLFVGSVRNPNPSAPRELKEQQDSPGNKDFLQSLKGFPRGDKLFGPDLKLVPPMEEDYPQFGSPK
B2: tPA: Tissue plasminogen activator, converts plasminogen into plasmin (protein, UniProt P00750 36-562, looked up)
Tissue-type plasminogen …: SYQVICRDEKTQMIYQQHQSWLRPVLRSNRVEYCWCNSGRAQCHSVPVKSCSEPRCFNGGTCQQALYFSDFVCQCPEGFAGKCCEIDTRATCYEDQGISYRGTWSTAESGAECTNWNSSALAQKPYSGRRPDAIRLGLGNHNYCRNPDRDSKPWCYVFKAGKYSSEFCSTPACSEGNSDCYFGNGSAYRGTHSLTESGASCLPWNSMILIGKVYTAQNPSAQALGLGKHNYCRNPDGDAKPWCHVLKNRRLTWEYCDVPSCSTCGLRQYSQPQFRIKGGLFADIASHPWQAAIFAKHRRSPGERFLCGGILISSCWILSAAHCFQERFPPHHLTVILGRTYRVVPGEEEQKFEVEKYIVHKEFDDDTYDNDIALLQLKSDSSRCAQESSVVRTVCLPPADLQLPDWTECELSGYGKHEALSPFYSERLKEAHVRLYPSSRCTSQHLLNRTVTDNMLCAGDTRSGGPQANLHDACQGDSGGPLVCLNDGRMTLVGIISWGLGCGQKDVPGVYTKVTNYLDWIRDNMRP

Tests used:
plasmin = plasmin (Homo sapiens, UniProt P00747); conditions: binding to the serine in plasmin's active site; cited from earlier work
preformed blood clots = experiment: In-vitro circulating plasma lung model of pulmonary embolism; conditions: circulating human plasma
Procedure: The in-vitro circulating plasma lung model 200 of pulmonary embolism (as shown in FIGS. 22 and 23), consists of a 3-D printed circuit 210, designed to mimic lung vasculature, and in which preformed blood clots of known mass are placed. This “lung” is in fluid connection with a reservoir 220 of approximately 200-250 mL of human plasma, type-matched to the clots, that is recirculated with a peristaltic pump 230, passed through a heating element (not shown), then pumped through the lung itself at a physiological constant pressure. An injection port 240 allows injection of reagents, enzymes or other molecules. After lysis is initiated, the “lung” is circulated for one hour. Clots are weighed before and after completion of the experiment reweighed, to provide for percentage of clot lysis information for each treatment regime.
In this Example, pulmonary embolism was simulated using the in-vitro lung model of Example 13 and the ability of the delivery system of the present disclosure was analyzed for its ability to remove clots.
Particularly, human plasma (200-250 mL), recirculated (37° C.) and loaded with approximately 4 grams type-matched clots was injected into the delivery system. After 1 hour of circulation, the clots were removed and weighed.

Sequence of plasmin (P00747 581-810 limits assumed): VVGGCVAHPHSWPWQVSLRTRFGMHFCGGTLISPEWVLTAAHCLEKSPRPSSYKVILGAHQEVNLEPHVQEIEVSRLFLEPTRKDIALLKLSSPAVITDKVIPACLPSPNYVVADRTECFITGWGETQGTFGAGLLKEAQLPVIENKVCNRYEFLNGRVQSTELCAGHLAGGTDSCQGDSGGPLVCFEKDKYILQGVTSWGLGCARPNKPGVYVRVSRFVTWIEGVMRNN
Sequence of plasmin (P00747 97-580 limits assumed): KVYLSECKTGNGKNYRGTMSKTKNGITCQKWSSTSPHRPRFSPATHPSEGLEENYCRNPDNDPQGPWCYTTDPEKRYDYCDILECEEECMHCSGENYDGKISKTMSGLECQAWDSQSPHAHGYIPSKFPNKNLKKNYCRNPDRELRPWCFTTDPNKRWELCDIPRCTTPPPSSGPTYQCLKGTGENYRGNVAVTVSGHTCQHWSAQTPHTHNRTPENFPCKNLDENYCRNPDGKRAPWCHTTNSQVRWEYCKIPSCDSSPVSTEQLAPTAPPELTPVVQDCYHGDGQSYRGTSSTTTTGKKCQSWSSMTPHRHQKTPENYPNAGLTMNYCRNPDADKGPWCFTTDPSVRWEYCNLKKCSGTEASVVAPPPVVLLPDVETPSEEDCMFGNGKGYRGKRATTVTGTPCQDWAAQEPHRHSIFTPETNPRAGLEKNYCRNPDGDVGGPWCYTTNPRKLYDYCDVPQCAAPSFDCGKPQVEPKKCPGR

Row | Molecule | rate constant of plasmin inhibition (plasmin) | reduction in antiplasmin (α2 AP) (preformed blood clots)
1 | B1 | 4×10^7 M^−1Sec^−1 | –
2 | B2 | – | fully depleted
